According to patent US20230235073A1:

What was measured:
[1] = target: human CD36 recombinant protein (Sino Biological, reference 10752-H08H) (human) (UniProt P16671); test: SPR Biacore T200, antibody captured on anti-mouse IgA, CD36 analyte, bivalent model
[2] = target: human CD36 recombinant protein (Sino Biological, reference 10752-H08H) (human) (UniProt P16671); test: ELISA, plate coated with human CD36, OD630, panel 'Coating: human CD36'
[3] = target: human CD36 recombinant protein (Sino Biological, reference 10752-H08H) (human) (UniProt P16671); test: SPR Biacore T200, antibody captured on anti-mouse IgA, CD36 analyte 3.3-333 nM, 1-to-1 model
[4] = target: human CD36 recombinant protein (Sino Biological, reference 10752-H08H) (human) (UniProt P16671); test: SPR Biacore T200, antibody captured on anti-mouse IgA, CD36 analyte, 2-state model
[5] = target: mouse CD36 recombinant protein (Sino Biological, reference 50422-M08H) (mouse) (UniProt Q08857); test: ELISA, plate coated with mouse CD36, OD630, panel 'Coating: mouse CD36'
Sequence of mouse CD36 recombinant protein (Sino Biological, reference 50422-M08H) (mouse) (Q08857 30-439 limits assumed, stated change not applied): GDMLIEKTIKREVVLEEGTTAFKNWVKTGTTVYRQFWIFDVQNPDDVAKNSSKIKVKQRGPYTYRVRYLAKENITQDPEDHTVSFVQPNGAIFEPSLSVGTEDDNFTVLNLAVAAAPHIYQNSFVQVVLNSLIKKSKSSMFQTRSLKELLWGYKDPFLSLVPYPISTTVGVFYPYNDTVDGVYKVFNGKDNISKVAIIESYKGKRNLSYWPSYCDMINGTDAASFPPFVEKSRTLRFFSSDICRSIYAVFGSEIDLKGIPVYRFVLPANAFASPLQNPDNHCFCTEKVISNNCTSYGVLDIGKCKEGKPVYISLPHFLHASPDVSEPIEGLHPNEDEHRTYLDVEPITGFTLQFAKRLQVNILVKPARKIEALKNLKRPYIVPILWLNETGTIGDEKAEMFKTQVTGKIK

[6] = target: human CD36 on cells overexpressing human CD36 (human) (UniProt P16671); test: FACS on cells overexpressing human CD36, % of Binding
Sequence of human CD36 on cells overexpressing human CD36 (human) (P16671 2-472 limits assumed): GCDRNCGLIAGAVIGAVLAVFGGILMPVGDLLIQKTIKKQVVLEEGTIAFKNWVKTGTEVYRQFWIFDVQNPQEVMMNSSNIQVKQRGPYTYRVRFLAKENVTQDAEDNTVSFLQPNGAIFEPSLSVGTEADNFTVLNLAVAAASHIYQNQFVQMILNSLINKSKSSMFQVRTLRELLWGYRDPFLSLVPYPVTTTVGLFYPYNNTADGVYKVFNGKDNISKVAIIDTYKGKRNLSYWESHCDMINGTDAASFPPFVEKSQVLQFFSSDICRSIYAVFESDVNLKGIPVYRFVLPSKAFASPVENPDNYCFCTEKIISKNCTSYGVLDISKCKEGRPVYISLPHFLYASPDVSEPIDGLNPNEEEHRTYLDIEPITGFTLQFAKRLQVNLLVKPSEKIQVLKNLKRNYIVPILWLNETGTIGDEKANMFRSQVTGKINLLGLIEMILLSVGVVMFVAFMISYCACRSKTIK

Sequence of human CD36 recombinant protein (Sino Biological, reference 10752-H08H) (human) (P16671 30-439 limits assumed): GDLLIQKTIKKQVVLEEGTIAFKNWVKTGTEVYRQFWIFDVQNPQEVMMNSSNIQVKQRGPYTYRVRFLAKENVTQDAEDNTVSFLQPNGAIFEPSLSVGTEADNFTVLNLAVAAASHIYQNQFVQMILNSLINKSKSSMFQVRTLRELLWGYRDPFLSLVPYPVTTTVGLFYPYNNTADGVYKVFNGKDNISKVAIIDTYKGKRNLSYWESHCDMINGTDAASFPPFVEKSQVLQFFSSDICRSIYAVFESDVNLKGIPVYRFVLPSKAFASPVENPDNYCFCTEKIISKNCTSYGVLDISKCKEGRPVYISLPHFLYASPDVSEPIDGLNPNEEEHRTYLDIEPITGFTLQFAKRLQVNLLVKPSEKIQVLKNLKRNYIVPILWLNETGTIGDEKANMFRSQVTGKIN

- KD1 [1]: 76.5 nM
- KD2 [1]: 956 nM
- ka1 [1]: 27200 M⁻¹ s⁻¹
- ka1 (second column so headed) [1]: 413 M⁻¹ s⁻¹
- ka2 [1]: 5.5e-05 1/RUs
- kd1 [1]: 0.00206 s⁻¹
- kd2 [1]: 0.000399 s⁻¹
- EC50 (read off the curve) [2]: 1 to 2 nM
- Kd [3]: 4.71 nM
- koff [3]: 0.00196 s⁻¹
- kon [3]: 418000 M⁻¹ s⁻¹
- Kd [4]: 7.61 nM
- ka1 [4]: 86900 M⁻¹ s⁻¹
- ka2 [4]: 0.000572 s⁻¹
- kd1 [4]: 0.0018 s⁻¹
- kd2 [4]: 0.000332 s⁻¹
- EC50 (read off the curve) [5]: 1 nM
- EC50 (read off the curve) [6]: 0.03 nM
Substance: commercial neutralizing monoclonal anti-CD36 antibody JC63.1 (CAYMAN, CAY-10009893-500)
